Measured values reported in patent publication US20190330333A1 (KAO, published 2019).
Where no end group is shown, it is not given here.

Key:
[1] = target: T1, PEGylated N-terminus 13 amino acids of inactive GIP (GIP(3-15)), antigen (2) for measurement (also: PEGylated, position not given here); test: ELISA, immobilized peptide antigen, hybridoma culture supernatant
T1 construct: Immobilized on the ELISA plate; also called PEGylated GIP(3-15)
T1 peptide: EGTFISDYSIAMD
Procedure: (§1) The reaction between the hybridoma culture supernatant and the antigen (1) and (2) for measurement was evaluated by ELISA using immobilized antigen (1) and (2), and hybridomas that are positive for the antigen (1) and negative for the antigen (2) were selected as anti-active GIP monoclonal antibody-producing hybridomas.
(§2) Antibody-producing hybridoma was cloned by culturing the hybridomas obtained above through a limiting dilution method to obtain single colonies, and single colony-forming wells were subjected to ELISA again to establish 9B9H5-B9 line, which produces an antibody that is positive for the antigen (1) and negative for the antigen (2) (WO 2016/104439).

[2] = target: T2, PEGylated N-terminus 15 amino acids of active GIP (GIP(1-15)), antigen (1) for measurement (also: PEGylated, position not given here); test: as above
T2 construct: Immobilized on the ELISA plate; The assay antigen carries no KLH; only the immunogen was KLH-linked; also called PEGylated GIP(1-15)
T2 peptide: YAEGTFISDYSIAMD
Procedure: as §1, §2

inactive GIP, GIP(3-42) = target: T3, inactive GIP, GIP(3-42); test: sandwich ELISA, anti-total GIP mAb capture, biotinylated antibody at 1 ug/mL as detection
T3 peptide: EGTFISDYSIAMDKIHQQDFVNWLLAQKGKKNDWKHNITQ
Procedure: (§3) The reactivity between the monoclonal antibody prepared in Production Example 1 and active GIP was confirmed by ELISA. The amino group of the anti-active GIP monoclonal antibody was biotinylated with NH2 group biotinylation kit (manufactured by Dojindo Laboratories). ELISA was performed using the produced biotinylated anti-active GIP monoclonal antibody at 1 μg/mL instead of a detection antibody, GIP detection antibody (biotinylated anti-total GIP monoclonal antibody), included in Human (total) GIP ELISA kit (manufactured by EMD Millipore Corporation). A […] dilution series of GIP(1-42) or GIP(3-42) was prepared in 6 steps (8.2 to 2000 pg/mL) with a 2000 pg/mL solution as the highest concentration. By using an anti-total GIP monoclonal antibody (included in Human GIP (total) ELISA kit manufactured by EMD Millipore Corporation) as a capture antibody, the biotinylated anti-active GIP monoclonal antibody as a detection antibody, and a peroxidase-streptavidin conjugate for detection, sandwich ELISA was conducted to prepare a calibration curve with GIP concentration on the X-axis and 450 nm-590 nm absorbance on the Y-axis (FIG. 1).

active GIP, GIP(1-42) = target: T4, active GIP, GIP(1-42); test: sandwich ELISA, anti-total GIP mAb capture, biotinylated antibody at 1 ug/mL as detection, GIP 8.2 to 2000 pg/mL
T4 construct: The assay was built on a Human (total) GIP ELISA kit
T4 peptide: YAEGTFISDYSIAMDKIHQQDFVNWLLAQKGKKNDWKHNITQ
Procedure: as §3

binding result [1]: no binding
binding result [2]: binds
binding result (inactive GIP, GIP(3-42)): no binding
binding result (active GIP, GIP(1-42)): binds
B1: anti-active GIP monoclonal antibody produced by hybridoma 9B9H5-B9 line (Production Example 1) (antibody, V domains shown)
VH: QVQLQQPGAELVKPGASVKLSCKASGYTFTSFWMHWVIQRPGQGLEWIGEMNPSDGRTHFNEKFKTKATLTIDTSSNTAYMELNSLTSEDSAVYYCARRMEDWGQGTLVTVSA
VL: DIKMTQSPSSMYASLGERVTITCKASQDINSYLGWFQQKPGKSPKTLIYGANRLVDGVPSRFSGSGSGQDYSLTISSLEYDDMGIYYCLQYDEFPLTFGAGTKLELKR
notes: Mouse (BALB/c) hybridoma monoclonal antibody; Culture supernatant was used in the screening and cloning ELISA; also called anti-active GIP antibody
